Experimental data as given in US20190048089A1 (Janssen / Centocor, published 2019).

Legend:
[1] = target: T1, human CD40 on cells (human tonsillar B cells, human dendritic cells, HEK-Blue CD40L cells) (human, UniProt P25942 21-277); assay: cell-based or functional assay
[2] = target: T2, cyno CD40 on cyno spleen B cells (Macaca fascicularis (cynomolgus), UniProt P25942 21-277 (human entry)); assay: cell-based or functional assay
T2 chain: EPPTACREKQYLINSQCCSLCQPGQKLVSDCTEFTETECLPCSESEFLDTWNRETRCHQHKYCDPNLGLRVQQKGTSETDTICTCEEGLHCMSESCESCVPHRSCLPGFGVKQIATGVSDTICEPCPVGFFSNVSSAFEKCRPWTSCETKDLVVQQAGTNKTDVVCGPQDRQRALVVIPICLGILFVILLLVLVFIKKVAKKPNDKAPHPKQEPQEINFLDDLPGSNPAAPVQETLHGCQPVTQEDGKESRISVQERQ

[3] = target: T1, human CD40 on cells (human tonsillar B …); assay: cell-based or functional assay; remark: listed apart in the source
[4] = target: T3, human CD40 (analyte in SPR) (human, UniProt P25942 21-193); assay: SPR, ProteOn XPR36, mAb captured on anti-human IgG Fc, CD40 as analyte, 25 C, 1:1 Langmuir
T3 construct: also called huCD40
Method: Affinity of the antibodies to human CD40 was assessed using Surface Plasmon Resonance (SPR) using a ProteOn XPR36 system (BioRad). […] Approximately 5000 RU (response units) of mAbs were immobilized. The kinetic experiments were performed at 25° C. in running buffer (DPBS+0.01% P20+100 μg/ml BSA). To perform kinetic experiments, 200 RU of mAbs were captured followed by injections of analytes (human or cyno CD40) at 5 concentrations (in a 4-fold serial dilution). The association phase was monitored for 3 minutes at 50 μL/min, then followed by 15 minutes of buffer flow (dissociation phase). The chip surface was regenerated with two 18 second pulses of 100 mM H₃PO₄ (Sigma, Cat#7961) at 100 μL/min.
The collected data were processed using ProteOn Manager software. First, the data was corrected for background using inter-spots. Then, double reference subtraction of the data was performed by using the buffer injection for analyte injections. The kinetic analysis of the data was performed using a Langmuir 1:1 binding model. The results were reported in the format of Ka (On-rate), Kd (Off-rate) and KD (equilibrium dissociation constant).

[5] = target: T3, human CD40 (analyte in SPR); assay: affinity in benchmark table; method not restated (SPR ProteOn of Example 3 presumed); Table 14 benchmark table, not Table 12
[6] = target: T1, human CD40 on cells (human tonsillar B …); assay: cell-based or functional assay; remark: listed apart in the source
[7] = target: T2, cyno CD40 on cyno spleen B cells; assay: cell-based or functional assay
[8] = target: T1, human CD40 on cells (human tonsillar B …); assay: cell-based or functional assay; remark: listed apart in the source
[9] = target: T3, human CD40 (analyte in SPR); assay: affinity in benchmark table; method not restated (SPR ProteOn of Example 3 presumed)

Row | Binder | IC50, mCD40L-driven human B-cell proliferation [1] | IC50, sCD40L-driven human B-cell proliferation [1] | IC50, sCD40L-driven cyno B-cell proliferation [2] | IC50, mCD40L-driven DC IL-12p40 production [3] | IC50, sCD40L-driven DC IL-12p40 production [3] | Kd [4] | koff [4] | kon [4] | Kd [5] | IC50, B cell proliferation, membrane CD40L, human B-cells [6] | IC50, B cell proliferation, soluble CD40L, human B-cells [6] | IC50, B cell proliferation, soluble CD40L, cyno B-cells [7] | IC50, human DC IL-12p40 production, membrane CD40L [8] | IC50, human DC IL-12p40 production, soluble CD40L [8] | Kd [9]
1 | C40B176 (antibody, human IgG1, lambda, IgG1sigma) heavy: EVQLVESGGGLVQPGGSLRLSCAASGFTFSSYAMSWVRQAPGKGLEWVSTINAAGGGTYYADSVKGRFTISRDNSKNTLYLQMNSLRAEDTAVYYCAKEGGKYYYYALDVWGQGTTVTVSSASTKGPSVFPLAPSSKSTSGGTAALGCLVKDYFPEPVTVSWNSGALTSGVHTFPAVLQSSGLYSLSSVVTVPSSSLGTQTYICNVNHKPSNTKVDKKVEPKSCDKTHTCPPCPAPEAAGASSVFLFPPKPKDTLMISRTPEVTCVVVDVSAEDPEVKFNWYVDGVEVHNAKTKPREEQYNSTYRVVSVLTVLHQDWLNGKEYKCKVSNKALPSSIEKTISKAKGQPREPQVYTLPPSREEMTKNQVSLTCLVKGFYPSDIAVEWESNGQPENNYKTTPPVLDSDGSFFLYSKLTVDKSRWQQGNVFSCSVMHEALHNHYTQKSLSLSPGK light: SYELTQPPSVSVSPGQTASITCSGDKLGDKYAAWYQQKPGQSPVLVIYQDSRRPSGIPERFSGSNSGNTATLTISGTQAMDEADYYCQAWASSTVVFGGGTKLTVLGQPKAAPSVTLFPPSSEELQANKATLVCLISDFYPGAVTVAWKADSSPVKAGVETTTPSKQSNNKYAASSYLSLTPEQWKSHRSYSCQVTHEGSTVEKTVAPTECS | 0.181 nM | 0.132 nM | 0.108 nM | 0.245 nM | 0.22 nM | 0.107 nM | 0.000307 s⁻¹ | 2.86e+06 M⁻¹ s⁻¹ | 0.0496 nM | – | – | – | – | – | –
2 | Astellas/Kirin ASKP-1240 (antibody, human IgG4 S228P, kappa, V domains shown, Benchmark) VH: QLQLQESGPGLLKPSETLSLTCTVSGGSISSPGYYGGWIRQPPGKGLEWIGSIYKSGSTYHNPSLKSRVTISVDTSKNQFSLKLSSVTAADTAVYYCTRPVVRYFGWFDPWGQGTLVTVSS VL: AIQLTQSPSSLSASVGDRVTITCRASQGISSALAWYQQKPGKAPKLLIYDASNLESGVPSRFSGSGSGTDFTLTISSLQPEDFATYYCQQFNSYPTFGQGTKVEIKR | – | – | – | – | – | – | – | – | – | 0.132 nM | 0.079 nM | 0.146 nM | 0.28 nM | 0.119 nM | 0.181 nM
3 | Novartis CFZ533 (antibody, human IgG1, kappa, N297A, V domains shown, Benchmark) VH: QVQLVESGGGVVQPGRSLRLSCAASGFTFSSYGMHWVRQAPGKGLEWVAVISYEESNRYHADSVKGRFTISRDNSKITLYLQMNSLRTEDTAVYYCARDGGIAAPGPDYWGQGTLVTVSS VL: DIVMTQSPLSLTVTPGEPASISCRSSQSLLYSNGYNYLDWYLQKPGQSPQVLISLGSNRASGVPDRFSGSGSGTDFTLKISRVEAEDVGVYYCMQARQTPFTFGPGTKVDIRR | – | – | – | – | – | – | – | – | – | 0.279 nM | 0.223 nM | – | 0.948 nM | 0.32 nM | 0.00936 nM
